In publication PMC12207370, “Macrocyclic Peptide Probes for Immunomodulatory Protein CD59: Potent Modulators of Bacterial Toxin Activity and Antibody‐Dependent Cytotoxicity” (Angewandte Chemie (International Ed. in English), 2025):

Target: T1, biotinylated CD59 (Homo sapiens, UniProt P13987)
T1 construct: Recombinant soluble human CD59 with an additional C-terminal cysteine residue
T1 sequence (P13987 26-102 limits assumed): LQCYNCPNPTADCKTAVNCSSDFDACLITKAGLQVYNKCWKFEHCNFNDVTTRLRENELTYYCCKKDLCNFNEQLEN
Experiment: mRNA-display cyclic peptide screen against CD59-biotin, NGS abundance after 6th selection round
Conditions: for Counts (raw counts for peptide sequence), Seq I: NGS sample Seq I; for Counts (raw counts for peptide sequence), Seq I / Counts (raw counts for peptide sequence), Seq II / Counts Seq I / Counts Seq II: sheet R6 (6th selection round); for Counts (raw counts for peptide sequence), Seq II: NGS sample Seq II; for Percentage of the pool, averaged across the two sequencing samples: average of Seq I and Seq II; for Percentage of the pool, averaged across the two sequencing samples / Percentage of the pool, Seq I / Percentage of the pool, Seq II / Percentage Seq I / Percentage Seq II / Percentage Average: sheet R6; for Percentage of the pool, Seq I: counts normalised by total counts of NGS sample Seq I; for Percentage of the pool, Seq II: counts normalised by total counts of NGS sample Seq II; for Percentage Seq I: counts normalised by total counts of sample Seq I; for Percentage Seq I / Percentage Seq II: percentage of the pool; for Percentage Seq II: counts normalised by total counts of sample Seq II; for Percentage Average: percentage of the pool averaged across the two sequencing samples; for Counts Seq I / Counts Seq II: raw NGS counts of peptide sequence; for Counts Seq I: sequencing sample Seq I; for Counts Seq II: sequencing sample Seq II
How it was run: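 Peptide–mRNA fusions were made by in vitro translation with a customised PURE express kit. The kit lacked release factor 1 and methionine and was supplemented with […] initiator tRNA carrying N-chloroacetyl-d-tyrosine. Thioether macrocycles were formed, then enriched and amplified over iterative rounds on CD59-biotin immobilised on streptavidin beads. NGS read counts per sequence were recorded after the 6th selection round.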

Row | Sequence | Counts (raw counts for peptide sequence), Seq I | Counts (raw counts for peptide sequence), Seq II | Percentage of the pool, averaged across the two sequencing samples [%] | Percentage of the pool, Seq I [%] | Percentage of the pool, Seq II [%] | Percentage Seq I [%] | Percentage Seq II [%] | Percentage Average [%] | Counts Seq I | Counts Seq II
1 | SAWGDRQIQYY | 64 | 6 | 0.014 | 0.015 | 0.014 | – | – | – | – | –
2 | SARGNRQIQYY | – | – | – | – | – | 0.026 | 0.028 | 0.027 | 114 | 12
3 | FVTGNRDHARG | – | – | – | – | – | 0.029 | 0.035 | 0.032 | 126 | 15
4 | CYGGRTFIYAWS | – | – | – | – | – | 8.492 | 8.097 | 8.295 | 37156 | 3489
5 | FVRGDQYSVLG | – | – | – | – | – | 0.056 | 0.081 | 0.069 | 247 | 35
6 | SACGNRQIQYY | 51 | 6 | 0.013 | 0.012 | 0.014 | – | – | – | – | –
7 | TFRSRTSCGAV | 51 | 7 | 0.014 | 0.012 | 0.016 | – | – | – | – | –
8 | GRLNECHVTWP | 43 | 9 | 0.015 | 0.010 | 0.021 | – | – | – | – | –
9 | SAWGNRQIQYH | 65 | 7 | 0.016 | 0.015 | 0.016 | – | – | – | – | –
10 | HCRVRGSRNYT | 38 | 6 | 0.011 | 0.009 | 0.014 | – | – | – | – | –
11 | CFARRLSSSHSL | – | – | – | – | – | 0.161 | 0.155 | 0.158 | 705 | 67
12 | HAFGSRDIAYY | 52 | 5 | 0.012 | 0.012 | 0.012 | – | – | – | – | –
13 | HCWARGSRNYT | – | – | – | – | – | 0.041 | 0.035 | 0.038 | 180 | 15
14 | ASWLTAPCYV | – | – | – | – | – | 0.032 | 0.019 | 0.025 | 138 | 8
15 | CFANRLYGSDSH | – | – | – | – | – | 0.031 | 0.035 | 0.033 | 135 | 15
16 | CFQNRVTSDSAK | – | – | – | – | – | 0.160 | 0.142 | 0.151 | 702 | 61
17 | ISYGDRSYTYY | – | – | – | – | – | 0.106 | 0.121 | 0.113 | 463 | 52
18 | CFRYRVTPTSY | – | – | – | – | – | 0.023 | 0.014 | 0.018 | 100 | 6
19 | WVYGSSTFRYQ | – | – | – | – | – | 0.030 | 0.030 | 0.030 | 133 | 13
20 | WILGSRWWTQS | – | – | – | – | – | 0.921 | 0.903 | 0.912 | 4031 | 389
21 | CFAGRPTIDAV | – | – | – | – | – | 0.018 | 0.028 | 0.023 | 80 | 12
22 | LWGTHSYVYYRP | 46 | 7 | 0.013 | 0.011 | 0.016 | – | – | – | – | –
23 | FIRGNSTSVLF | – | – | – | – | – | 1.617 | 1.838 | 1.728 | 7076 | 792
